Data as given in the Human Domainome abundance scans (Beltran et al. 2025).

B1: Zinc finger homeobox protein 4, residues 2562 to 2617; numbered along this chain, Q86UP3 (parent)
chain: RLRTTITPEQLEILYEKYLLDSNPTRKMLDHIAREVGLKKRVVQVWFQNTRARERK
B2: Nucleolar transcription factor 1, residues 408 to 469; numbered along this chain, P17480 (parent)
chain: KRPVSAMFIFSEEKRRQLQEERPELSESELTRLLARMWNDLSEKKKAKYKAREAALKAQSER

Variants of: B1
Assay: abundance fitness (aPCA) (normalised: wild type 0, dead -1); higher = more abundant; growth selection in yeast, the domain comes from the species named
Details: Homo sapiens

Abundance fitness of substitutions, site by site:
A33: R -0.541, H -0.86
T5: S -0.068, R -0.34, Y -0.252, K -0.332
R55: A 0.107, M 0.128, G 0.11, W -0.114, P 0.001, Q -0.078, H -0.086, Y 0.05, I 0.053
R41: E 0.517, N 0.248, I -0.038, W -0.102
I6: R -0.983, T -0.584, V -0.248, M 0.144
Y15: L 0.054, H 0.085, P -0.781, W 0.048, G 0.009, V -0.206, K 0.1
D30: M -0.352, V -0.292, P -0.579, A -0.108, Q -0.102, T 0.002, I -0.056, W -0.173, F -0.372
I13: G -0.235, Q 0.167, S -0.041, W -0.246, T -0.139
K39: I -0.784, M -0.405, D 0.11, H -0.072, N -0.168
K40: C 0.108, V 0.264, L 0.264, I 0.143, E 0.361, W -0.002, T 0.199, F 0.15
L38: E -0.488, M -0.132, A -0.508
P24: T -0.947, M -0.687, C -0.777, E -0.976
N23: T -0.213, P -0.425, E -0.086, I -0.091, C -0.738, G -0.121, Y -0.062, V -0.356
L11: R -0.043, C -0.85, T 0.215, V 0.123
I32: L -0.15, S -1.27, E -0.998, Q -1.24, K -0.796, W -0.23
F47: R -0.969, A -0.983, L -0.74, V -0.974, H -0.865, E -0.806
E9: P -0.178, M -0.171, Q -0.152, S -0.173, F -0.399, V -0.157, Y -0.297, N -0.141, C -0.417
R53: N 0.052, L 0.039, I -0.156, G 0.054, W -0.315, Y -0.62
R51: F -0.08, H 0.32, Y -0.192, M -0.021, S 0.086, T -0.242, V 0.017, K 0.039
D21: N -0.188, I -0.406, S -0.433, A -0.435, W -0.505, V -0.465
Q44: R -0.191, F -0.416, D 0.322, Y 0.202
R34: L -0.011, P -0.638, W -0.139

Variants of: B2
Assay: as above
Details: Homo sapiens

Abundance fitness: each site, then its substitutions
S60: T -0.037, I -0.057, H -0.317, R -0.059, M -0.113, E 0, V -0.038, N -0.06, P -0.006, G 0.027, L -0.062, W -0.049, Q -0.036, F 0.031
E61: A -0.059, R -0.236, G -0.071, Y -0.191, K -0.093, F -0.129, S -0.045, W -0.135, M 0.023, C -0.073, D -0.069, V -0.069, T 0.003
R62: S -0.019, Q 0.004, M -0.019, D 0.073, Y 0.016, G 0.055, P -0.232, W 0.014, T -0.051, N -0.224, L -0.094, I -0.055, E 0.027, K 0.042, A 0.079, F -0.317
